The series deals with the molecule itself. The experiment in a line: crystal structure.

B1: hRIO2(1-321) (domain or fragment, human, UniProt Q9BVS4 1-321, looked up)
chain: MGKVNVAKLRYMSRDDFRVLTAVEMGMKNHEIVPGSLIASIASLKHGGCNKVLRELVKHKLIAWERTKTVQGYRLTNAGYDYLALKTLSSRQVVESVGNQMGVGKESDIYIVANEEGQQFALKLHRLGRTSFRNLKNKRDYHKHRHNVSWLYLSRLSAMKEFAYMKALYERKFPVPKPIDYNRHAVVMELINGYPLCQIHHVEDPASVYDEAMELIVKLANHGLIHGDFNEFNLILDESDHITMIDFPQMVSTSHPNAEWYFDRDVKCIKDFFMKRFSYESELFPTFKDIRREDTLDVEVSASGYTKEMQADDELLHPLGP
In the case of B1, the binding result is reported as “binds”.
